One may read the Kd as a measure of binding affinity in units of concentration. One may read the stoichiometry N as the number of molecules, sites or subunits per partner or assembly.

For assay [1], the target named is recombinant RIM1 PDZ-domain (rat RIM1 residues 596-704) (rat) (UniProt Q9JIR4). The assay is described as follows: ITC. A general note: ITC needs no label: the signal is the heat of the interaction.
In assay [2] the target is T1, recombinant RIM1 PDZ-domain (rat RIM1 residues 596-704) (rat, UniProt Q9JIR4 596-704, ^15N-labeled (for the HSQC spectra)).
T1 sequence (looked up): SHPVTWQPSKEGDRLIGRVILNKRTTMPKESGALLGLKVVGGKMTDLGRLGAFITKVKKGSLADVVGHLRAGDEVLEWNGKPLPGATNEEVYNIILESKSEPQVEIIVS
The assay is described as follows: ITC.

Take “C-terminus of N-type Ca^2+-channels (tested by HSQC and calorimetry) (from UniProt Q00975 1-2339) (domain or fragment)”: in assay [1], the dissociation constant Kd was found to be 23.4 µM and the stoichiometry N came to 0.93.
As for RHDAYSESEDDWC [peptide from the C-terminus of the P/Q-type Ca^2+-channel (residues RHDAYSESEDDWC)], in assay [2], the equilibrium dissociation constant (Kd) stood at 10.3 ± 0.6 µM and the “stoichiometry N” value was 0.93.

(Values after paper PMC3063406 (Cell, 2011).)
